The nanobody polyreactivity screen of Harvey et al. (2022)

Assay: yeast display, Sf9 membrane polyspecificity reagent, FACS + sequencing; frameworks hold sequencing errors
Outline: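 After 36–48 hours of galactose induction, yeast (Saccharomyces cerevisiae BJ5465) displaying a synthetic nanobody library were stained at 4 °C for 1 hour with 10% biotinylated, detergent-solubilized Sf9 membrane reagent. Streptavidin microbeads enriched the stained cells before FACS sorting into low and high (top ~1%) gates on anti-HA and streptavidin fluorescence. Each clone's polyreactivity label reflects its gate of origin.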

Sequence | polyreactivity (PSR sort gate)
QVQLVESGGGLVQAGGSLRLSCAASGRIFHFNAMGWYRQAPGKERELVATITKRGGRTYYADSVKGRFTISRDNAKNTVYLQMNSLKPEDTAVYYCNADQSRYSAVSGYDYWGQGTQVTVSS | high polyreactivity
QVQLVESGGGLVEAGGSLRLSCAASGFTFYHNAMGWYRPAPGKERELVAAISSGGTTNYADSVKGRFTISRDNAKNTVYLQMNSLTPEDTAVYYCAARGWGPTRAYDYWGQGTQVTVSS | high polyreactivity
QVQLVESGGGLVQAGGSLRISCAASGSTFGEYALGWYRQAPGKERELVAVITSDDNTYYADSVKGRFTISRDNAKNTVYLQMNSLKPEDTAVYYCATDDRRRFKYWGQGTQVTVSS | high polyreactivity
QVQLVESGGGLVQAGGSLRLSCAASGSIFGRNAMGWYRQAPGKERELVAAISSRSDRTYYADSVKGRFTISRDNAKNTVYLQMNSLKPEDTAVYYCAARYGSSQNGYKSDYWGQGTQVTLSS | high polyreactivity
QLHLEESGGGLVQAGGSLRISCAASGSTFGIYAMGSYRQAPGKEREILAAISVGGGRTYYADTVKGRFTISRDNAKNTVLLQMNSLKPEDTAVYYCAVYGFWGLGTQVTVSS | high polyreactivity
QVQLVESGGGLVQAGGSLRLSCAASGSTFDINAMGWYRQAPGKERHLVAAITYDTTTTYYADSVKGRFTISRDNAKNTVYLLMNSLKPEDTAVYYCAVEGLLGDTTYVQGYPYWYNYWGQGTQVTVSS | low polyreactivity
QVQLVESGGGLVQAGGSLRLSCAASGSTFVANAMGWYRQAPGKERELVAAISFNRGGNTYYADSVKGRFTISRDNAKNTVYLQMNSLKPEDTAVYYCAARNSYGNWRYYYWGQGTQVTVSS | high polyreactivity
QVQLVESGGGLVQAGGSLRLSCAASGSTFLVYAMGWSRQAPGKERELVAAIRGGGSTNYADSVKGRFTISRDNAKNTVYLQMNSLKPEDTGVYYCAAYLLYTPSMDYWGQGTQVTVSS | low polyreactivity
QVQLVESGGGLVQAGGSLRLSCAASGSIFSPNAMGWYRQATGKERELVAAISWTGVSTHYADSVKGRFTISRDNAKNTDYLHMNSLKPEDTAVYYCKYRFYRYPKYGYWGQGTQVTVSS | high polyreactivity
QVQLVESGGGLVQAGGSLRLSCAASGRIFVPYAMGWYRQAPGKERELVATITFGGGRTYYADSVKGRFTISRDNAKNTVYLQMNSLKPEDTAVYYCAADYYLWRLPVYAQRSFVRGDYWGQGTQVTVSS | low polyreactivity
QVQLVESGGGLVQAGGSLRLSCAASGIILNYYAMGWYRQAPGKERELVAAISSGGTTYYADSVKGRFTISRDNAKNTVYLQMNSLKPEDTAVYYCNADYLYSRGGDWRWWDMDYWGQGTQVTVSS | low polyreactivity
QVQLVESGGGLVQAGGSLRLSCAASGSTFYYYAMGWYRQAPGKERELVAAISATGGSTYYADSVKGRFTISRDNAKNTVYLQMNSLKPEDTAVYYCAAYASRRLRTIRIFGNDYWGQGTQVTVSS | high polyreactivity
QVQLVESGGGLVQAGGSLRLSCAASGSTFAYYAMGWYRQAPGKEREWVAGISGSGGSTYYADSVKGRFTISRDYAKNTVYLHMNSLKPEDTAVYYCAVVQRSKRTYPWYDYWGQGSQVTVSS | low polyreactivity
QVQLVESGGGLVQAGGSLRLSCAASGIIFDRNTMGWYRQAPGKEREYVAAISRNGGSTSYADSVKGRFTISRDNAKNTVYLQMNSLKPEDTAVYDCAADVETFWGWRYEYWGQGTQVTVSS | low polyreactivity
QVQLVESGGGLVQAGGSLLLSSAASGFTFGNNDMGWYRKSHGKERELVDAITKRGSSTYYADSVKGRFTISRDNAKNTVYLQMNSLKPEDTAVYHCAASWLGASGIRYDYWGQGTLVTVSS | high polyreactivity
QVQLVESGGGLVQAGGSLRLSCAASGIIFRYYAMGWYRQAPGKERELVAAISWSTDSTYYADSVKGRFTISRDNAKNTVYLPMNSLKPEDTAVYYCNARPSYYRISPYDYWGQGTQVTVSS | high polyreactivity
QVQLVESGGGLVQAGGSLRLSCAASGSIFGGNTMGWYRQAPGKERELVAAISRSGGSTYYADSVKGRFTISRDNAKNTVYLQMNSLKPEDTAVYYCNRKQAGHAQGYDYWGQGTQVTVSS | high polyreactivity
QVQLVESGGGLVQAGGSLRLSCAASGSIIKYYAMGWYRQAPGKERELVAAISWRGGRTYADSVKGRFTISRDNAKNTVYLQLNSLKPEDTAVYYCNARAPQGYGTHRSKYRWGPMGYWGQGTQVTVSS | high polyreactivity
QVQLLQSGGGLVQAGGSLRLSCAASGFIFLGYAMGWYRQAPGNERELVAAISENSGTTSYADSVKGRFTISRDNAKNTVYLQMNSLKPEDTAVYYCAADSIGNYLLYDYWGQGTQVTVSS | low polyreactivity
QDHLVESGGGLVQAGGSLRLSCAASGSTFYFYAMGWYREAPGKERELVAVISSGGRTYYADSVKGRFTISRDNAKNSVYLQMNSLKPVDTGVYYGAASWPSSLTFYYWGHGTQVTVSS | low polyreactivity
QVQLVESGGGLVQAGGSLRLSCAASGNIFSWYAMGWYRQAPGKERELVAAITSGGRTYYADSVKGRFTISRDNAKNTVYLQMNSLKPEDTAVYYCNAVSRLYNRRDYWGQGTQVTVSS | high polyreactivity
QVQLQESGGGLEQAGGSLRMSCAASGTIFSEANMGWYRQAPGKERELVATIGQGSTTNYADSVKGRFTISRDNAKNTVYLQMNSLKPEETPVYYCAVVTVDPVGFVYWGQGTQVTVSS | low polyreactivity

Sequence | polyreactivity (PSR sort gate)
QVQLVESGGGLVHAGGSLRLSCAASRYTFVNYAMGWYSQAPGKERELVAAITSRGSSTYYADSVKGRFTLSRDNAKNTVYLQMNSLNPEDTAVYYCYVHVRNHDYWGEGTQVTVSS | high polyreactivity
QVQLVESVVGLVQAGGSLRLSCAASGSIFIENTMGWYRQAPGKERELVAAISGSVGRTFYADSVKGRFTISRDNAKNTVYLQMNSLKPEDTAVYYCAAVRRTSPGWVYYWGQGTRVTVSS | high polyreactivity
QVQLVESGGGLVQAGGSLRLSCAASGRTFPSYAMGWYRQAPGKERELVAAITTSGGSTYYADSVKGRFTISRDNAKNTVYLQMNSLKPEDTAVYYCAAAKPYSGSQYYYWGQGTQVTVSS | high polyreactivity
QVQLVESGGGLVQAGGSLRLSCAASGLILKNYAMGWYRQAPWKERELVAAITRSGGSTYYADSVKGRFTISRDNAKNTVYLQMNSLKPEDTAVYYCAARNPSGKGRYDYRGQGTQVTVSS | high polyreactivity
QVQLVESGGGLVQAGGSLRLSCAASGYTFLYYAMGWYRQAPGKEREFVAAISRSGGSTYYADSVKGRFTISRDNAKNTVYLQMNSLKPEDTAVYYCAARFRYQHQRGDYWGQGTQVTVSS | high polyreactivity
QVQLVESGGGLVQAGGSLRLSCAASGFIFVYNAMGWYRQAPGKERELVAVISSGGSTYYADSVKGRFTISRDNAKNTVYLQMNSLKPEDTAVYYCNKRRYDIKDEYDYWGQGTQVTVSS | low polyreactivity
QVQLVESGVGLVHAGGSLRLSCAASGFIFVRYSIGWYRQAPGKEREFVASISWSGGSTYYADSVKGRFTISRDNAKNTVYLQMNSLKPEDTAVYYCAAYVRKDRSRGLYGYWGQGTQVTVSS | high polyreactivity
QVQLVESGGGLVQAGGSLRLSCAASGRIFDYYAMGWYRQAPGKERELVARITSGGTTNYADSVKGRFTISRDNAKNTVYLQMNSLKPEDTAVYYCNAQDYSDPLQMDYWGQGTQVTVSS | low polyreactivity
QVQLVESGGGLVQAGGSLRLSCAASGSTFYAYAMGWYRQAPGKEWELVAAITYSGGTPYYADSVKGRFTISRDNAKNTVYLQMNSLKPEDTAVYYCAARYRGLTGHIDGYWGQGTQVTVSS | low polyreactivity
QVQLVESGGGLVQAGGSLRLSCAASGSTFAPYAMGWYRQAPGKERELVASIRSTGSTNYADSVKGRFTISRDNAKNTVYLQMNSLKPEDTAVYYCAARYRRYQYRVKVDYYYWGQGTQVTVSA | high polyreactivity
QVQLVESGGGLVQAGGSLRLSCAASGRTSLRYAMGWYRLAPGKDRELVAAIRYGGGSTRYADSVKGRFTISRDNAKNTVYLQMKSLKPEDTAVSYCAARYFPRIQYGRKGYDYWGQGTQVTVSA | low polyreactivity
QVQLVESGGGLVQAGGSLRLSCAASGSIFAYNVMGWYRQAPGKEREFVAAISSGGRTTYADSVKGPFTISRDNAKNTVYLQMNSLKAEDTAVYYFNAYFLVHYRRLRPYEYWGQGTQVTVSS | low polyreactivity
QVQLVESGGGLVQAGGSLRLCCAASGFTFSWYAMGWYRQAPGKERELVAAISSSGGSTYYADSVKGRFTISRDNAKNTVYLQMYSLKPEDTAVYYCNAYRSASVVVGYDYWGQGTQVTVSS | high polyreactivity
QVQLVESGGGLVQAGGSLRLSCAASGSIFKENAMGWYRQAPGKERELVAAITSSGGNTYYADSVKGRFTISRDHAKNTVYIQMNSLKPEDTAVYYCNAGVPVRSTTTDGYWGQGTQVNVSS | high polyreactivity
QVQLEESGGGLVQAGGSLRLSCAASGRIFKRYAMGWYRQAPGKERELVAAITWSGTRTYYADSVKGRFTISRDNAKNTVYLQMNSLKPEDTAVYYCAADQKYHQRPSEYGYWGQGTQVTVSS | high polyreactivity
QVQLVESGGGLVQAGGSLRLSCAASGLTFGYYAMGWYRQAPGKERELVAAITGGGGSTYYADSVKGRFTISRDNAKNTVYLQMNSLKPEDTAVYYCAKAVYFRRKGHWYQMEYWGQGTQVTVSS | low polyreactivity
QVQLVESGGGLVQAGGSLRLSCAASGRTSLRNAMGWYRQAPGKEWELVATISQSGGRTHYADSVKGRFTISRENAKNTVYLQMNSLKPEDTAVYYCGAVARFSQYLYNYWGQGTQVTVSS | low polyreactivity
QVQLVESGGGLVQAGGSLRLSCAASGSIFYYYAMGWYRQAPGKERELVAAITSRAGDTYYADSVKGRFTISRDNAKNTVYLQMNSLKPEDTAVYYCAADFPAYYDYYYWGQGTQVTVSS | low polyreactivity
QVQLVESGGGLVQAGGSLRLSCAASGIIFTDYAMGWDRQAPGKERELVAAISSGGGSTYYADSVKGRFTISRDNAKNTVYIQLNSQKPEDTAVYYCAAEGYLISGACDYLYDYYWGQGTQVTVSS | high polyreactivity
QVQLVESGGGLVQAGGSLRLSCAASGFIFEYYAMGWYRQAPGKERELVAAISSGGGRTYYADSVKGRFTISRDNAKNTVYLQMNSLKPEDTAVYYCAAGFYVDYQLYEYWGQGTQVTVSS | high polyreactivity
QVRLVESGGGLVQAGGSLRLSCAASGRIFQYYSMGWYRQAPGKERELVASITSGGGSTYYADSVKGRFTISRDNAKNTVYLQMNSLKPEDTAVYYCNARWYGLSTRYDYWGQGTQVTVSS | low polyreactivity
